# Measured values from the RNAGym collection of RNA variant scans (doi:10.7554/elife.80360).
# B1: CPEB3 Ribozyme (parent)
# chain: GGGGGCCACAGCAGAAGCGUUCACGUCGCGGCCCCUGUCAGAUUCUGGUGAAUCUGCGAAUUCUGCUGU
# Variants of: B1
# Assay: self-cleavage, relative activity (ratio to wild type); higher = more cleavage; co-transcriptional
row,Variant,self-cleavage
1,A40C U49A,0.679
2,A40C U49G,0.658
3,A40C U49C,0.584
4,C39G A40C,0.606
5,C39G A40U,0.644
6,C39G U55A,0.866
7,C39A U43A,0.386
8,C39A U43C,0.517
9,C39G U62C,0.658
10,C39G U62G,0.592
11,C39G U62A,0.788
12,C39G A60G,0.794
13,C39G A60U,0.354
14,C39G A60C,0.265
15,C39U U55G,0.661
16,A40C C63U,0.388
17,A40C C63G,0.315
18,C39A U67G,0.932
19,C39A U67A,0.846
20,C39A U67C,0.918
21,U38G G68A,0.259
22,C39G G47U,0.989
23,C39G G47C,0.986
24,C39G G47A,0.996

row,Variant,self-cleavage
1,C39U G41A,0.475
2,C39U G41U,0.337
3,A40G C45U,0.933
4,A40G C45A,0.884
5,U38G U67A,0.295
6,U38G U67C,0.302
7,U38G U67G,0.273
8,A40C U55C,0.515
9,A40C U55A,0.697
10,A40G G41A,0.706
11,A40G G41U,0.722
12,A40G G41C,0.433
13,C39G U43G,0.448
14,C39G U43A,0.522
15,C39U C45U,0.862
16,C39A U53G,0.351
17,C39A U53C,0.37
18,C39A U53A,0.447
19,A40G U49C,0.877
20,A40G U49G,0.999
21,A40G U49A,0.969
22,C39G U46A,0.997
23,C39G U46G,0.907
24,C39G G50C,0.771

row,Variant,self-cleavage
1,C39A A51C,0.654
2,C39A A51G,0.802
3,C39U U62A,0.702
4,C39U U62G,0.622
5,C39U U62C,0.514
6,C39G G65A,0.599
7,A40G A42U,0.763
8,A40G A42G,0.822
9,C39U G56C,0.887
10,C39U G56A,1
11,A40C C57A,0.2
12,A40C C57G,0.316
13,A40C C54U,0.523
14,A40C C54A,0.244
15,C39U U46G,0.997
16,C39U U46C,0.822
17,C39U U67C,0.882
18,C39U U67G,0.923
19,C39U U67A,0.902
20,C39U U64G,0.733
21,C39U U64C,0.699
22,A40C U53C,0.219
23,A40C U53G,0.15
24,A40C U53A,0.311

row,Variant,self-cleavage
1,A40G U46C,0.942
2,A40G U46A,0.971
3,A40G U46G,0.977
4,C39A U44A,0.638
5,C39A U44G,0.562
6,C39A U44C,0.432
7,A40C G50U,0.55
8,C39U C54A,0.526
9,C39U C54G,0.546
10,C39U C54U,0.853
11,A40G A51U,0.891
12,A40G A51C,0.927
13,C39G A51U,0.853
14,C39G A51G,0.924
15,C39G A51C,0.718
16,A40C U67G,0.744
17,A40C U67A,0.518
18,C39U U43C,0.687
19,C39G A42G,0.739
20,C39G A42C,0.553
21,C39G A42U,0.725
22,C39A G50A,0.912
23,C39A G50U,0.847
24,C39A G50C,0.602

row,Variant,self-cleavage
1,U38G U62C,0.261
2,C39U G65A,0.56
3,C39U G65U,0.498
4,C39A C57G,0.327
5,C39A C57U,0.346
6,U38G G56A,0.722
7,U38G G56U,0.672
8,U38G G56C,0.237
9,C39U U69C,1.04
10,C39A A40U,0.475
11,C39A A40C,0.835
12,C39A A40G,0.841
13,A40G C54U,0.952
14,C39U G47C,0.957
15,C39G C66U,0.961
16,C39G C66G,0.566
17,C39A G48A,0.968
18,A40C C45A,0.534
19,A40C C45G,0.531
20,A40C C45U,0.497
21,C39U C63A,0.54
22,C39U C63G,0.451
23,C39U C63U,0.84
24,C39A U64C,0.544

row,Variant,self-cleavage
1,C39U G68C,0.97
2,C39U G68U,0.95
3,U38G U64A,0.163
4,U38G U64G,0.25
5,U38G U64C,0.235
6,A40G G58U,0.963
7,A40G G58C,0.973
8,A40G G58A,0.912
9,C39G U61A,0.703
10,C39G U61G,0.597
11,A40G A60G,0.859
12,A40G A60U,0.486
13,A40G A60C,0.329
14,A40C A51G,0.494
15,A40C A51U,0.324
16,A40G U61A,0.863
17,C39A G65C,0.361
18,C39A G65A,0.478
19,C39A G65U,0.397
20,A40C U64A,0.357
21,C39G G58U,1.01
22,C39G G58A,0.864
23,A40C A59G,0.515
24,A40C A59C,0.346

row,Variant,self-cleavage
1,C39G U53G,0.533
2,C39G U53A,0.538
3,C39G U53C,0.516
4,C39A U69G,0.964
5,U38G U69A,0.352
6,U38G U69C,0.412
7,U38G U69G,0.42
8,C39U C57U,0.37
9,C39U A60C,0.341
10,C39U A60U,0.266
11,C39U A60G,0.667
12,U38G U43A,0.247
13,U38G U43G,0.213
14,U38G U43C,0.161
15,U38G U49C,0.231
16,U38G U49G,0.264
17,U38G U49A,0.178
18,C39A A60G,0.606
19,C39A A60C,0.286
20,C39A A60U,0.24
21,C39U A59G,0.987
22,C39A C45A,0.64
23,C39A C45U,0.708
24,A40G C66U,0.982

row,Variant,self-cleavage
1,A40G C66A,0.54
2,C39U G58C,0.946
3,C39U G58U,0.961
4,C39U G58A,0.873
5,U38G U44C,0.273
6,U38G U44G,0.346
7,A40G U53C,0.649
8,A40G U53G,0.813
9,A40G U53A,0.759
10,A40C G65C,0.332
11,A40C G65A,0.387
12,A40C C66A,0.232
13,A40C C66U,0.443
14,A40C C66G,0.36
15,C39U C66U,0.885
16,C39U C66A,0.541
17,A40G U44C,0.485
18,A40G U44G,0.843
19,C39U U44A,0.517
20,A40C G68A,0.882
21,C39G G41U,0.436
22,C39G G41C,0.351
23,A40G G48U,0.969
24,A40G G48C,0.98

row,Variant,self-cleavage
1,A40G G48A,1
2,C39A U55G,0.808
3,C39A U55C,0.736
4,C39A A52G,0.833
5,C39A A52U,0.673
6,C39A A52C,0.67
7,A40C A42G,0.482
8,A40C A42C,0.26
9,A40C A42U,0.363
10,C39G A52U,0.858
11,C39G A52G,0.917
12,C39G A52C,0.89
13,A40G G68C,0.953
14,A40G G68A,0.954
15,A40G C57G,0.326
16,C39U A40G,0.813
17,C39U A40C,0.756
18,C39G C45G,0.828
19,C39G C45U,0.938
20,C39G C45A,0.787
21,C39U A51U,0.836
22,C39U A52C,0.776
23,C39U A52G,0.948
24,C39U A52U,0.78

row,Variant,self-cleavage
1,U38G G58A,0.257
2,U38G G58C,0.236
3,A40C G58C,0.776
4,A40C G58U,0.727
5,C39U G48A,0.998
6,C39U G48U,0.941
7,C39G A59U,0.587
8,C39G A59C,0.488
9,C39A G56U,0.984
10,C39A G56C,0.904
11,C39A G56A,0.898
12,C39A C54A,0.583
13,C39A C54G,0.427
14,C39A C54U,0.765
15,A40C G56C,0.341
16,A40C G56U,0.401
17,A40C G56A,0.546
18,A40C U62A,0.385
19,A40C U62C,0.255
20,A40C U62G,0.352
21,C39U U49G,0.975
22,C39U U49A,0.971
23,C39A U46C,0.808
24,C39A U46G,0.957

row,Variant,self-cleavage
1,A40C G47U,0.905
2,A40C G47A,0.791
3,A40G C63U,0.915
4,A40G C63A,0.689
5,A40G C63G,0.563
6,A40G G47U,1.02
7,A40G G47A,0.987
8,C39G G56U,1
9,C39G G56C,0.938
10,C39G G56A,0.882
11,C39A C66U,0.828
12,C39A C66A,0.435
13,C39G U49A,0.923
14,C39G U49C,0.875
15,C39U G50C,0.744
16,C39U G50U,0.895
17,A40G G50C,0.943
18,A40G G50A,0.918
19,A40G G50U,0.971
20,A40C U61A,0.304
21,A40C U61G,0.192
22,A40C U61C,0.339
23,A40C U43C,0.314
24,A40C U43G,0.281

row,Variant,self-cleavage
1,A40C U43A,0.356
2,C39A G58U,0.948
3,C39A G58A,0.625
4,C39G G68C,0.955
5,C39G G68A,0.95
6,C39A U61G,0.402
7,C39A U61C,0.328
8,C39A G47U,0.919
9,C39A G47A,0.949
10,U38G G65A,0.257
11,U38G G65U,0.28
12,C39U A42C,0.542
13,C39U A42G,0.514
14,A40C G48U,0.884
15,A40C A52G,0.583
16,C39U,0.954
17,C39A,0.903
18,C39G,0.967
19,U38G U46A,0.233
20,U38G U46C,0.294
21,A40G G56U,0.895
22,A40G G56A,0.949
23,C39G U64C,0.736
24,C39G U64G,0.642

row,Variant,self-cleavage
1,C39A C63G,0.407
2,C39A C63A,0.465
3,C39A C63U,0.776
4,C39G G48A,0.957
5,C39G G48U,0.966
6,A40C G41C,0.324
7,A40C G41A,0.333
8,C39A A42C,0.476
9,C39A A42G,0.35
10,C39A U62A,0.549
11,C39U U61C,0.435
12,C39U U61A,0.766
13,C39G U67C,0.93
14,A40G U43G,0.614
15,A40G U43A,0.809
16,A40G U43C,0.764
17,A40C U46A,0.866
18,A40C U46G,0.802
19,A40C U46C,0.273
20,U38G G50U,0.271
21,A40C U69A,0.865
22,A40C U69C,0.965
23,U38G U55C,0.172
24,U38G U55G,0.283

row,Variant,self-cleavage
1,U38G U55A,0.196
2,C39G U44A,0.772
3,C39G U44C,0.58
4,C39G U44G,0.709
5,C39A G41U,0.277
6,C39G U69C,1.05
7,C39A U49A,0.902
8,C39A G68U,0.976
9,C39A G68C,0.932
10,A40G G65A,0.756
11,A40G G65C,0.434
12,C39G C54A,0.561
13,C39G C54G,0.625
14,C39G C54U,0.888
15,C39G C63U,0.934
16,C39G C63A,0.494
17,A40G A59G,0.935
18,A40G A59C,0.568
19,A40C A60U,0.217
20,C39U U53C,0.382
21,C39U U53G,0.61
22,C39A A59C,0.386
